# Data as given in patent publication US20240327530A1 (ICHNOS SCIENCES, published 2024).
# T1: Recombinant cynomolgus monkey IL-1RAP-ECD(S21-E359)-avi-his protein (cynomolgus monkey, UniProt P59822 21-359 (rhesus entry))
# T1 construct: also called cyno IL-1RAP-ECD-Avi-His; recombinant cynomolgus monkey IL-1RAP-avi-his protein
# T1 sequence: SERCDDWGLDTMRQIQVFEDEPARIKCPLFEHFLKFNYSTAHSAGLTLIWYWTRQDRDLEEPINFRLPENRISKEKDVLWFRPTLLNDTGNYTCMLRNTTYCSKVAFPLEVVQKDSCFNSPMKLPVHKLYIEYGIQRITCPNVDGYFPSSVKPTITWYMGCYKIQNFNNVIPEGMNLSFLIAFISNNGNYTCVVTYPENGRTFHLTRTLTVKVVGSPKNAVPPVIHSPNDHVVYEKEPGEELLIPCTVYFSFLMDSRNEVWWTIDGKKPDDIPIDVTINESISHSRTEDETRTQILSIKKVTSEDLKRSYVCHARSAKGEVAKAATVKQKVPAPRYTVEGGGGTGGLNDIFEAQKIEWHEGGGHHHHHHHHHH
# T2: Human IL-1RAP, membrane-bound on human cells (HaCaT, dermal fibroblasts, neutrophils, PBMC, whole blood) (human, UniProt Q9NPH3 21-570)
# T2 sequence: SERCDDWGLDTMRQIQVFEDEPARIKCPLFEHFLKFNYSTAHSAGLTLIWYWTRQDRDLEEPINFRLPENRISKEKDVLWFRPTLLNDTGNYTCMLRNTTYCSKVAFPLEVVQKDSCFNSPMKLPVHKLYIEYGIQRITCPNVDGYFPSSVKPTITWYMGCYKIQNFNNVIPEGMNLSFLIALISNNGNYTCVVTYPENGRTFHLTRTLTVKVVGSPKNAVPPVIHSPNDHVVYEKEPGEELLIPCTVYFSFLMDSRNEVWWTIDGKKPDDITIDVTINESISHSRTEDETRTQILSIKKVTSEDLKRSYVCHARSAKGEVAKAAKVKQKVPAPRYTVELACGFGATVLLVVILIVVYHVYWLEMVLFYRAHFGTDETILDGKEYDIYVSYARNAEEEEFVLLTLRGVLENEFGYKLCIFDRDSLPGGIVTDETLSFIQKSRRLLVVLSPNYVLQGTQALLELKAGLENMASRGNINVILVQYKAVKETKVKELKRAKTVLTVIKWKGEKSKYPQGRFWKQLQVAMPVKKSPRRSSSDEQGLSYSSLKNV
# Key:
# [1] = molecular target: T1, Recombinant cynomolgus monkey …; assay: SPR, IgG1 LALA captured on anti-human IgG Fc CM5 chip, cynomolgus monkey IL-1RAP-avi-his as analyte in a concentration series, 1:1 fit, one representative replicate
# Protocol: Anti-IL-1RAP-C8-RecC-ES IgG1 LALA was immobilized on a Series S CM5 sensor CHIP coupled with anti-human IgG Fc. Human IL-1RAP-avi-his or cynomolgus monkey IL-1RAP-avi-his was injected over immobilized IgG1 LALA in concentration series in HBS-EP+ buffer. One representative replicate for human IL-1RAP and cynomolgus monkey IL-1RAP is presented. Plots are showing data expressed as number of resonance units (abbreviated RU; Y axis) vs. time (s, X axis). Dotted lines represent the measured data while solid lines represent simulated fits. KD: equilibrium dissociation constant; Ka: association constant; Kd: dissociation constant.
# Surface plasmon resonance (SPR) was used to measure the binding affinities of the human IgG1 LALA molecules for human and cynomolgus monkey IL-1RAP. Affinities were measured on a BIACORE™ T200 instrument (BIACORE™, GE […]®) at 25° C. and analyzed with the BIACORE™ T200 Evaluation Software (v3.1). Measurements were performed on Series S CM5 sensor chips (BIACORE™ T200, BIACORE™, GE […]®, catalog no. BR100530) coupled with anti-human IgG Fc (BIACORE™, GE […]®, catalog no. BR100839) using a commercial amine coupling kit (BIACORE™, GE […]®, catalog no. BR100050). SPR measurements were performed with recombinant human IL-1RAP-avi-his protein produced in house (SEQ ID NO. 1) or recombinant cynomolgus monkey IL-1RAP-avi-his protein produced in house (SEQ ID NO. 2). The affinities to human and cynomolgus monkey IL-1RAP were assessed by immobilizing anti-IL-1RAP IgG1 LALA molecules and using IL-1RAP proteins as analyte. Around 150 RU of human IgG1 LALA were captured on fc2 of a Series S CM5 sensor chip coupled with anti-human IgG Fc. Recombinant human IL-1RAP-avi-his protein or recombinant cynomolgus monkey IL-1RAP-avi-his protein was injected in multi cycle kinetic at different concentrations ranging from 0.14 to 100 nM, in HBS-EP+ buffer (BIACORE™, GE […]®, catalog no. BR100669) at a flow rate of 30 μl/min for 3 min on fc1 and fc2 (fc1 being used as reference). Dissociation was monitored for 12 min.
# [2] = molecular target: T2, Human IL-1RAP, membrane-bound on human …; assay: cell-based or functional assay
binder,measurement,setting,value
"Anti-IL-1RAP-C8-RecC-ES-IgG1LALA (antibody, V domains shown, also called ISB 880-C8-recC-ES) VH: QVQLVQSGAEVKKPGSSVKVSCKASGSPAEPYAIQWVRQAPGQGLEWMGYIIPSLGGYDYAQKFQGRVTITADESTSTAYMELSSLRSEDTAVYYCARGQTLYESGRQFDIWGQGTLVTVSS VL: not shown",Kd,[1],0.307 nM
same,koff,[1],0.000196 s⁻¹
same,kon,[1],638000 M⁻¹ s⁻¹
same,"human whole blood, IL-1alpha stimulation, IL-6 release, mean EC50 of inhibition",[2],9.5 nM
same,"human whole blood, IL-1alpha stimulation, IL-8 release, mean EC50 of inhibition",[2],14.2 nM
same,"human whole blood, IL-1alpha stimulation, MCP-1 release, mean EC50 of inhibition",[2],11.1 nM
same,"human whole blood, IL-1alpha stimulation, MIP-1alpha release, mean EC50 of inhibition",[2],15 nM
same,"human whole blood, IL-1alpha stimulation, MIP-1beta release, mean EC50 of inhibition",[2],89 nM
same,"human whole blood, IL-1beta stimulation, IL-6 release, mean EC50 of inhibition",[2],8.8 nM
same,"human whole blood, IL-1beta stimulation, IL-8 release, mean EC50 of inhibition",[2],24.7 nM
same,"human whole blood, IL-1beta stimulation, MCP-1 release, mean EC50 of inhibition",[2],17.7 nM
same,"human whole blood, IL-1beta stimulation, MIP-1alpha release, mean EC50 of inhibition",[2],16 nM
same,"human whole blood, IL-1beta stimulation, MIP-1beta release, mean EC50 of inhibition",[2],53.3 nM
